Results on 56 variants are retold here after the RNAGym collection of RNA variant scans (doi:10.7554/elife.90254).

B1: LINE1-mini (parent)
chain: GGCAGAGCUCAACACAGCGUGGCAAAGUGGCUGUGGCUAGACUGCC

The variants in this data set derive from B1. As to the kind of experiment: self-cleavage, relative activity (ratio to wild type); higher = more cleavage; in vitro, sequencing; the parent is a self-cleaving ribozyme.
Consider GGGAGAGCUCAACACAGCUUGGCAAAGUGGCUGUGGCUAGACUGCC [C3G G19U], for which the self-cleavage worked out at 0.56.
For GGGAGAGCUCAACACAGCCUGGCAAAGUGGCUGUGGCUAGACUGCC [C3G G19C], the self-cleavage worked out at 0.16.
Take GGGAGAGCUCAACACAGCAUGGCAAAGUGGCUGUGGCUAGACUGCC [C3G G19A]: the self-cleavage was 0.59.
The same measure for GGGAGAGCUCAACACACCGUGGCAAAGUGGCUGUGGCUAGACUGCC [C3G G17C]: 0.15; for GGGAGAGCUCAACACAACGUGGCAAAGUGGCUGUGGCUAGACUGCC [C3G G17A]: 0.14.
The same measure for GGGAGAGCUCAACACAUCGUGGCAAAGUGGCUGUGGCUAGACUGCC [C3G G17U]: 0.15; for GGGAGAGCUCAACACAGCGUGUCAAAGUGGCUGUGGCUAGACUGCC [C3G G22U]: 0.38; for GGGAGAGCUCAACACAGCGUGCCAAAGUGGCUGUGGCUAGACUGCC [C3G G22C]: 0.26.
Turning to GGGAGAGCUCAACACAGCGUGACAAAGUGGCUGUGGCUAGACUGCC [C3G G22A], the self-cleavage worked out at 0.36.
For GGGAGAGCUCAACACAGCGUGGCAAAGUGGCUGUGUCUAGACUGCC [C3G G36U], the self-cleavage is 0.2.
Regarding GGGAGAGCUCAACACAGCGUGGCAAAGUGGCUGUGACUAGACUGCC [C3G G36A], the self-cleavage stood at 0.74.
GGGAGAGCUCAACACAGCGUGGCAAAGUGGCUGUGCCUAGACUGCC [C3G G36C]: the self-cleavage amounted to 0.66.
For the variant GGGAGAGCUCAACACAGCGUGGCAAAGUGGCAGUGGCUAGACUGCC [C3G U32A], the self-cleavage is 0.05.
Regarding GGGAGAGCUCAACACAGCGUGGCAAAGUGGCGGUGGCUAGACUGCC [C3G U32G], the self-cleavage is 0.11.
Turning to GGGAGAGCUCAACACAGCGUGGCAAAGUGGCCGUGGCUAGACUGCC [C3G U32C], the self-cleavage is 0.14.
On to GGGAGAGCUCAACACAGCGUGGCAAAGUGUCUGUGGCUAGACUGCC [C3G G30U], for which the self-cleavage amounted to 0.71.
Regarding GGGAGAGCUCAACACAGCGUGGCAAAGUGACUGUGGCUAGACUGCC [C3G G30A], the self-cleavage was 0.82.
For the variant GGGAGAGCUCAACACAGCGUGGCAAAGUGCCUGUGGCUAGACUGCC [C3G G30C], the self-cleavage came to 0.32.
As to GGGAGAGCUCAACACAGCGUGGCAAAGAGGCUGUGGCUAGACUGCC [C3G U28A], the self-cleavage came out at 0.22.
As to GGGAGAGCUCAACACAGCGUGGCAAAGCGGCUGUGGCUAGACUGCC [C3G U28C], the self-cleavage was found to be 0.16.
As for GGGAGAGCUCAACACAGCGUGGCAAAGGGGCUGUGGCUAGACUGCC [C3G U28G], the self-cleavage came to 0.19.
On to GGGAGAGCACAACACAGCGUGGCAAAGUGGCUGUGGCUAGACUGCC [C3G U9A], for which the self-cleavage is 0.27.
The same measure for GGGAGAGCCCAACACAGCGUGGCAAAGUGGCUGUGGCUAGACUGCC [C3G U9C]: 0.03; for GGGAGAGCGCAACACAGCGUGGCAAAGUGGCUGUGGCUAGACUGCC [C3G U9G]: 0.3.
Consider GGGAGAGCUCAACACAGCGUGGCAAAGUGGCUAUGGCUAGACUGCC [C3G G33A], for which the self-cleavage amounted to 0.23.
As to GGGAGAGCUCAACACAGCGUGGCAAAGUGGCUUUGGCUAGACUGCC [C3G G33U], the self-cleavage was 0.2.
With GGGAGAGCUCAACACAGCGUGGCAAAGUGGCUCUGGCUAGACUGCC [C3G G33C], the self-cleavage worked out at 0.12.
For GGGAGAGCUCAACACAGCGUGGCAAAGUGGCUGUGGCUAGACUUCC [C3G G44U], the self-cleavage turned out to be 1.21.
For the variant GGGAGAGCUCAACACAGCGUGGCAAAGUGGCUGUGGCUAGACUCCC [C3G G44C], the self-cleavage worked out at 0.93.
Then GGGAGAGCUCAACACAGCGUGGCAAAGUGGCUGUGGCUAGACUACC [C3G G44A], with 0.35; and GGGAGAGCUCAACACAGCGUGGCAAAAUGGCUGUGGCUAGACUGCC [C3G G27A], with 0.21.
Consider GGGAGAGCUCAACACAGCGUGGCAAAUUGGCUGUGGCUAGACUGCC [C3G G27U], for which the self-cleavage was 0.32.
Take GGGAGAGCUCAACACAGCGUGGCAAACUGGCUGUGGCUAGACUGCC [C3G G27C]: the self-cleavage is 0.13.
On to GGGAGAGCUCAACACAGCGAGGCAAAGUGGCUGUGGCUAGACUGCC [C3G U20A], for which the self-cleavage amounted to 0.35.
For the variant GGGAGAGCUCAACACAGCGCGGCAAAGUGGCUGUGGCUAGACUGCC [C3G U20C], the self-cleavage worked out at 0.41.
For the variant GGGAGAGCUCAACACAGCGGGGCAAAGUGGCUGUGGCUAGACUGCC [C3G U20G], the self-cleavage was 0.41.
The same measure for GGGAGAGCUCAACACAGCGUGGCAAAGUAGCUGUGGCUAGACUGCC [C3G G29A]: 0.38.
Consider GGGAGAGCUCAACACAGCGUGGCAAAGUUGCUGUGGCUAGACUGCC [C3G G29U], for which the self-cleavage is 0.55.
Consider GGGAGAGCUCAACACAGCGUGGCAAAGUCGCUGUGGCUAGACUGCC [C3G G29C], for which the self-cleavage was 0.43.
Take GGGAGAGCUCAACACAGCGUGGCAAAGUGGCUGGGGCUAGACUGCC [C3G U34G]: the self-cleavage came out at 0.08.
On to GGGAGAGCUCAACACAGCGUGGCAAAGUGGCUGAGGCUAGACUGCC [C3G U34A], for which the self-cleavage came out at 0.08.
As to GGGAGAGCUCAACACAGCGUGGCAAAGUGGCUGCGGCUAGACUGCC [C3G U34C], the self-cleavage was 0.1.
In the case of GGGAGAGCUCAACACAGCGUGGCAAAGUGGCUGUGGCCAGACUGCC [C3G U38C], the self-cleavage came to 0.22.
For the variant GGGAGAGCUCAACACAGCGUGGCAAAGUGGCUGUGGCAAGACUGCC [C3G U38A], the self-cleavage amounted to 0.18.
In the case of GGGAGAGCUCAACACAGCGUGGCAAAGUGGCUGUGGCGAGACUGCC [C3G U38G], the self-cleavage worked out at 0.05.
As for GGGAGAUCUCAACACAGCGUGGCAAAGUGGCUGUGGCUAGACUGCC [C3G G7U], the self-cleavage amounted to 0.22.
For the variant GGGAGAGCUCAACACAGCGUGGCAAAGUGGCUGUGGCUAAACUGCC [C3G G40A], the self-cleavage worked out at 0.39.
GGGAGAGCUCAACACAGCGUGGCAAAGUGGCUGUGGCUACACUGCC [C3G G40C]: the self-cleavage turned out to be 0.1.
Then GGGAGAGCUCAACACAGCGUGGCAAAGUGGCUGUGGCUAUACUGCC [C3G G40U], with 0.13; and GGGAGAGCUCAACACAGCGUGGCAAAGUGGCUGUGGCUAGACAGCC [C3G U43A], with 0.41.
For GGGAGAGCUCAACACAGCGUCGCAAAGUGGCUGUGGCUAGACUGCC [C3G G21C], the self-cleavage is 0.41.
As for GGGAGAGCUCAACACAGCGUUGCAAAGUGGCUGUGGCUAGACUGCC [C3G G21U], the self-cleavage was 0.48.
For GGGAGAGCUCAACACAGCGUAGCAAAGUGGCUGUGGCUAGACUGCC [C3G G21A], the self-cleavage amounted to 1.1.
Turning to GGGAGAGCUCAACACAGCGUGGCAAAGUGGCUGUAGCUAGACUGCC [C3G G35A], the self-cleavage came out at 0.23.
As to GGGAGAGCUCAACACAGCGUGGCAAAGUGGCUGUUGCUAGACUGCC [C3G G35U], the self-cleavage was 0.28.
Consider GGGAGAGCUCAACACAGCGUGGCAAAGUGGCUGUCGCUAGACUGCC [C3G G35C], for which the self-cleavage was determined as 0.13.
